Data taken from US20150105326A1 (SEOUL NATIONAL UNIVERSITY SNU R AND D FOUNDATION, published 2015).

Tests used:
[1] = biological target: T1, Enhancer of Zeste Homolog 2 lysine methyltransferase (EZH2) wild type (UniProt Q15910 1-746); test: co-immunoprecipitation of endogenous proteins, HEK-293 cells with MG132 (FIG. 3)
T1 construct: Endogenous (HEK-293) or overexpressed, in cell extracts; also called EZH2 WT

[2] = biological target: T2, EZH2 H689A mutant (catalytically inactive mutant, MT) (UniProt Q15910 1-746); test: binding of EZH2 WT or MT with RORα in cell extracts (FIG. 15)
T2 construct: also called EZH2 MT; H689A mutant (MT) of EZH2
T2 sequence (Q15910 whole entry H689A): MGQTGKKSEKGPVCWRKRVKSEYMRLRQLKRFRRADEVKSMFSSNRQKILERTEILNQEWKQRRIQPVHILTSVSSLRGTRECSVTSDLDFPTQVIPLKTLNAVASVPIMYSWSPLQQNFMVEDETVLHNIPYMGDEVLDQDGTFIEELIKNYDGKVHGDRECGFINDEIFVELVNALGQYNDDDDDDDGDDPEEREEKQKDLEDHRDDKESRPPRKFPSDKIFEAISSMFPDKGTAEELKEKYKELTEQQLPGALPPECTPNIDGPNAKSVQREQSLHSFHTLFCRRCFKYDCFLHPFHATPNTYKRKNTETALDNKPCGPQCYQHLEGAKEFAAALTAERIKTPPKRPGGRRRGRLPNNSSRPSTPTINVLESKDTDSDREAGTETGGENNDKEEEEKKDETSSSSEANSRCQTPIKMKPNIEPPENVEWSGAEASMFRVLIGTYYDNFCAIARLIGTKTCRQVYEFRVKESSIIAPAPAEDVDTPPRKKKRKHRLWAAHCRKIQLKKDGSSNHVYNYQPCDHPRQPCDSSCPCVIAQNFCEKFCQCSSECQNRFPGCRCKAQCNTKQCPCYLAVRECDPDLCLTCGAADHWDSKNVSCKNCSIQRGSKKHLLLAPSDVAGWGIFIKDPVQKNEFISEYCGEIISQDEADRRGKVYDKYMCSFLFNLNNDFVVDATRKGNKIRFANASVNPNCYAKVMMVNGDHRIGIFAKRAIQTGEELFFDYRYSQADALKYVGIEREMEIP

[3] = biological target: T3, DDB1-CUL4-associated factor 1 adaptor (DCAF1) (UniProt Q9Y4B6 1-1507); test: co-immunoprecipitation, HEK-293 cells with 20 µM MG132 (FIG. 23 legend)
T3 construct: Endogenous or overexpressed in HEK-293 cells, in cell extracts; also called VprBP
T3 sequence (Q9Y4B6 whole entry): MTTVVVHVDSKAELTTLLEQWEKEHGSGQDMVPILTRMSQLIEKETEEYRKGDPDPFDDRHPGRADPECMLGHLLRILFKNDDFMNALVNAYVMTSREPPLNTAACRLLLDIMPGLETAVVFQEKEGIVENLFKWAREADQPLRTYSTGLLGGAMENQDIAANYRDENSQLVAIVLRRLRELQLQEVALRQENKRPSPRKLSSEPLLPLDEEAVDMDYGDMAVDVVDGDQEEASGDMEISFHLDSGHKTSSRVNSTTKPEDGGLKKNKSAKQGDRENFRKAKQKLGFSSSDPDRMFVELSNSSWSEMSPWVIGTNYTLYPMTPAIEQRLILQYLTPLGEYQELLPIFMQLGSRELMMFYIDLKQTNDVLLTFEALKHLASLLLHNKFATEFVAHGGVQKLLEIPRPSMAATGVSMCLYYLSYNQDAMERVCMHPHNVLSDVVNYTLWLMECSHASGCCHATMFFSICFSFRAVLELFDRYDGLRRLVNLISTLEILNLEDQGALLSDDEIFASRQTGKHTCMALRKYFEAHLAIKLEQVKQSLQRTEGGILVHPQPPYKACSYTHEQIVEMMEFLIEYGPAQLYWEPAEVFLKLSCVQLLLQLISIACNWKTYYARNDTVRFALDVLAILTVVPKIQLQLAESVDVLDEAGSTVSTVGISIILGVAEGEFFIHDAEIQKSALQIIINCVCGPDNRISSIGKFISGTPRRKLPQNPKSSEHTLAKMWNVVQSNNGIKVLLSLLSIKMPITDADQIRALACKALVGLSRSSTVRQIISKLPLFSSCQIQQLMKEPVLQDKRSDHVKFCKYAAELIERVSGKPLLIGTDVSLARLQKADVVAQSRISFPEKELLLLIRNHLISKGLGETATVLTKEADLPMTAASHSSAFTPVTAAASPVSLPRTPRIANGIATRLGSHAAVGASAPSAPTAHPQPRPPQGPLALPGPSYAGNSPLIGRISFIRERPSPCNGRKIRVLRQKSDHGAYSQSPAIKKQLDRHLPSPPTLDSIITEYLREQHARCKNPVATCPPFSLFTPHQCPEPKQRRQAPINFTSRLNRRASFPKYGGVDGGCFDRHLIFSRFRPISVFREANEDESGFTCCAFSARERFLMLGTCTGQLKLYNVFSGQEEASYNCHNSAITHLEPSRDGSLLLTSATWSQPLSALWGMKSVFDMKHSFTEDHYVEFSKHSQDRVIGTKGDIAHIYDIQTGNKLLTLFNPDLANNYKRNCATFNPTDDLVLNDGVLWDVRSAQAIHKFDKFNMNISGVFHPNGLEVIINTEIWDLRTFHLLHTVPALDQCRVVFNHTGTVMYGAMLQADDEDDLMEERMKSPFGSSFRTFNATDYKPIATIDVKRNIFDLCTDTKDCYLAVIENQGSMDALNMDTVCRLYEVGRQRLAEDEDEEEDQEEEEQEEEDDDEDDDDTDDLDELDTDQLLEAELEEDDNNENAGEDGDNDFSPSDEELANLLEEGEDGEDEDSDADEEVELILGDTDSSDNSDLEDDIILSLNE

Measured: binding result

T1 sequence (Q15910 whole entry): as the sequence (Q15910 whole entry H689A) above, with A689H counted along it

B1: retinoic acid-related orphan nuclear receptor α (RORα) wild type (receptor, UniProt P35398-2 1-523, looked up)
chain: MESAPAAPDPAASEPGSSGADAAAGSRETPLNQESARKSEPPAPVRRQSYSSTSRGISVTKKTHTSQIEIIPCKICGDKSSGIHYGVITCEGCKGFFRRSQQSNATYSCPRQKNCLIDRTSRNRCQHCRLQKCLAVGMSRDAVKFGRMSKKQRDSLYAEVQKHRMQQQQRDHQQQPGEAEPLTPTYNISANGLTELHDDLSNYIDGHTPEGSKADSAVSSFYLDIQPSPDQSGLDINGIKPEPICDYTPASGFFPYCSFTNGETSPTVSMAELEHLAQNISKSHLETCQYLREELQQITWQTFLQEEIENYQNKQREVMWQLCAIKITEAIQYVVEFAKRIDGFMELCQNDQIVLLKAGSLEVVFIRMCRAFDSQNNTVYFDGKYASPDVFKSLGCEDFISFVFEFGKSLCSMHLTEDEIALFSAFVLMSADRSWLQEKVKIEKLQQKIQLALQHVLQKNHREDGILTKLICKVSTLRALCGRHTEKLMAFKAIYPDIVRLHFPPLYKELFTSEFEPAMQIDG
modifications: K38 mono-methylated by EZH2 in cells (the fraction methylated is not stated)
notes: Endogenous protein of HEK-293 cells in some co-immunoprecipitations, 3x-Flag-tagged (3x-Flag-CMV-RORα) in others; the tag is not written as a piece; also called RORα WT; Flag-RORα
binds: all assays above
